Laboratory results: patent US20220213165A1 (University of Texas, published 2022)
Square brackets hold non-standard residues; d marks the D form. Ends that are not written are not given here.

Legend:
[1] = target: T1, recombinant human EphB4 (rhEphB4) (human, UniProt P54760 16-539, limits assumed); experiment: SPR (BIACore), peptide 1.6-800 nM injected over immobilized rhEphB4
T1 construct: Bought protein; also called purified EphB4; immobilized EphB4
T1 sequence (looked up): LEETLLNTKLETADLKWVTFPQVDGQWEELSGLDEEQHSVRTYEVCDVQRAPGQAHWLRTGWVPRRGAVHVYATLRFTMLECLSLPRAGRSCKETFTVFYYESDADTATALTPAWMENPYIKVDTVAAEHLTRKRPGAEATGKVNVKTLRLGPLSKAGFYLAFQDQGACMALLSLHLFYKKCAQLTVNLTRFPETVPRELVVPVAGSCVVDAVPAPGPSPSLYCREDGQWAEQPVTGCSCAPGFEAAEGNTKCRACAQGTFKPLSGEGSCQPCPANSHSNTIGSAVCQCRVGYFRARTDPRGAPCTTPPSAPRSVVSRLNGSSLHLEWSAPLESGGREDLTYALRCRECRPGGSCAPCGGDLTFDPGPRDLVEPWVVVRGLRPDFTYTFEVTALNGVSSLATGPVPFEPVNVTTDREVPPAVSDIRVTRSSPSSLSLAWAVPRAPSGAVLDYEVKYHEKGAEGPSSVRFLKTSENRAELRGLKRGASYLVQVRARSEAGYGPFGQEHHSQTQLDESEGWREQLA
Procedure: FIG. 10: BIACore sensorgrams of binding of truncated peptides to immobilized rhEphB4. Retention of a peptide on a sensor chip was indicated by a change in response units (RU) over the course of the 180-s injection interval followed by a 210-s washing interval. Peptides in concentrations of 1.6 nM to 800 nM were injected over the rhEphB4 sensor chip, and the magnitude of peptide binding to immobilized EphB4 was recorded.
(§1) Surface plasmon resonance (SPR) binding and competition assays. A stock solution of EphB4 in PBS (100 μg/mL) was diluted to 25 μg/mL with 10 mM sodium acetate buffer (pH 4.5) and immobilized to CM5 sensor chips using the amine coupling reaction according to manufacturer-provided procedures (BIACore). Briefly, the surfaces of the chips in flow cells (FC)-1 and FC-2 were activated by exposing chips to a mixture of 200 mM N-ethyl-N′-dimethylaminopropyl carbodiimide and 50 mM N-hydroxysuccinimide for 7 min. FC-1 was used as a reference surface and was directly deactivated by injecting 1 M ethanolamine at pH 8.5 for 7 min. FC-2 was injected with 25 μg/mL human or murine EphB4 followed by injection of 1 M ethanolamine to block the remaining activated ester groups on the surface. The chips were allowed to stabilize for at least 2 h in HBSEP running buffer before injection of test analytes.

[2] = target: T1, recombinant human EphB4 (rhEphB4); experiment: SPR, peptide over immobilized EphB4
[3] = target: T1, recombinant human EphB4 (rhEphB4); experiment: SPR competition: BIDEN-AP (2-1000 nM) mixed with human EphB4 (30 nM), injected on EFNB2-Fc-coated CM5 chip
[4] = target: T1, recombinant human EphB4 (rhEphB4); experiment: SPR, peptide over immobilized EphB4, 1:1 mass transfer interaction model
Procedure: as §1

[5] = target: T2, EphB4 on the surface of A2780cp20 cells (human, UniProt P54760 16-987); experiment: flow cytometry competition: A2780cp20 cells with EFNB2-Fc (20 nM) and BIDEN-AP (0-100 µM), PE-labeled anti-Fc detection
T2 construct: whole, on cells; also called EphB4 in human HeyA8 ovarian cancer cells; EphB4 in human ovarian cancer cells A2780cp20
T2 sequence (looked up): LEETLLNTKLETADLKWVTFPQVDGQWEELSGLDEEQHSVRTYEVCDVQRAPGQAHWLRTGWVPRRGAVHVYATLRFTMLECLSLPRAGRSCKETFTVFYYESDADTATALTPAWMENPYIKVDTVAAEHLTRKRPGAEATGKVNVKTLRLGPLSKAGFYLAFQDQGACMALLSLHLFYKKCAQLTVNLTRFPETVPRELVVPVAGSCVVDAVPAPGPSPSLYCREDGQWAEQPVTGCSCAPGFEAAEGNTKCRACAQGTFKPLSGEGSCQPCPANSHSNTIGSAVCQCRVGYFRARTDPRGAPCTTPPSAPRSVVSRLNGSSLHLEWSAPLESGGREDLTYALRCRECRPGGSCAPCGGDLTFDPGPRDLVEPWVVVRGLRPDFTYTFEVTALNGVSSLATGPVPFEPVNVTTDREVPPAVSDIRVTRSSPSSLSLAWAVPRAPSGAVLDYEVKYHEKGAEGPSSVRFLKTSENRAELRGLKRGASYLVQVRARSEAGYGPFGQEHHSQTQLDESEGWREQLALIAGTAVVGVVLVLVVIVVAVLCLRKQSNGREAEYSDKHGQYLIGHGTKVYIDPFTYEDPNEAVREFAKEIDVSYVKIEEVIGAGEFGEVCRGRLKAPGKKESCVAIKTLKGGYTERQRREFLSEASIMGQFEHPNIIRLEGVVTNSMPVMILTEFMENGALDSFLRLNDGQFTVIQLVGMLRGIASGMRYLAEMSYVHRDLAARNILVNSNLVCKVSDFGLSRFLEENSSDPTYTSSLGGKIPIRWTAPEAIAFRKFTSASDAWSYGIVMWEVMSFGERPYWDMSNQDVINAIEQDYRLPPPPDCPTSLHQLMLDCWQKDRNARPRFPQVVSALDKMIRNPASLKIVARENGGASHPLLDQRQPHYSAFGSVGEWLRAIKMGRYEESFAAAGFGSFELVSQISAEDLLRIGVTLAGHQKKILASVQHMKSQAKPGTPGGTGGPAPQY
Procedure: D-Tyr-P3 is highlighted in red. […] Vertical axes, in response units (RU), represent binding of the peptide to immobilized EphB4. […] Individual duplicates were performed in each condition. Data are presented as mean±SD.
Cell-based binding assay. […] Cells were analyzed in a Cellquest fluorocytometer (BD Bioscience, San Jose, Calif.). The experiments were run in duplicate.

[6] = target: T1, recombinant human EphB4 (rhEphB4); experiment: SPR (BIACore), peptide 1.6-800 nM injected over immobilized rhEphB4; remark: listed apart in the source
Procedure: Peptides in concentrations of 1.6 nM to 800 nM were injected over the rhEphB4 sensor chips, and the magnitude of peptide binding to immobilized EphB4 in response units (RU) was recorded.
as §1

B1: B4-008, TNYLFSPNGPIARA (peptide)
peptide: TNYLFSPNGPIARA
notes: also called TNYL-RAW truncated of C-terminus Trp-P15
For B1, the Kd [1] was 60 nM and the Kd [2] was 13 nM.

TNYLFSPNGPIARAW (D-Arg at position 13) [B4-002, TNYLFSPNGPIA(dR)AW] was tested, and the Kd [2] was 39 nM.

B2: BIDEN-AP (bi-directional ephrin agonist peptide), TN(dY)LFSPNGPIARAW (peptide)
peptide: TN[dY]LFSPNGPIARAW
notes: Synthetic 15-mer made by solid phase synthesis on Rink resin; also called EphB4 agonist peptide
For B2, the IC50 [3] was 4 nM, the Kd [4] was 7 nM and the IC50 [5] was about 1000 nM.

For TNYLFSPNGPIAR[dA]W (also called TNYL-RAW with D-Ala at P14) [TNYLFSPNGPIAR(dA)W], the Kd [6] was 43 nM.

Binder TNYLF[dS]PNGPIARAW [B4-006, TNYLF(dS)PNGPIARAW] has a Kd [6] of 7700 nM.

Binder TNYLFSPNGPIARA[dW] (also called TNYL-RAW with D-Trp at P15) [TNYLFSPNGPIARA(dW)] has a Kd [6] of 8 nM.

B3: YLFSPNGPIARAW (peptide)
peptide: YLFSPNGPIARAW
notes: also called TNYL-RAW truncated of N-terminus Thr-Asn (P1-P2)
B3 gave a Kd [1] of 5.2 nM.

B4: B4-001, Cyclo(KTNYLFSPNGPIARAWD) (peptide)
peptide: KTNYLFSPNGPIARAWD
modifications: not fully specified (bridges); printed as Cyclo(KTNYLFSPNGPIARAWD); also: cyclic, ring-closing atoms not given here
In the case of B4, the Kd [2] is reported as 4.4 nM.

Binder TNY[dL]FSPNGPIARAW [B4-004, TNY(dL)FSPNGPIARAW] has a Kd [2] of 65 nM.

B5: TNYLFSPNGPIAR (peptide)
peptide: TNYLFSPNGPIAR
notes: also called TNYL-RAW truncated of C-terminus Ala-Trp (P14-P15)
Work on B5 yielded a Kd [1] of 192 nM.

B6: TNYL-RAW (peptide)
peptide: TNYLFSPNGPIARAW
notes: also called EphB4 antagonist TNYL-RAW peptide
Work on B6 yielded a Kd [2] of 3.1 nM.

For TNYL[dF]SPNGPIARAW [B4-005, TNYL(dF)SPNGPIARAW], the Kd [2] was 75 nM and the Kd [6] was 841 nM.

B7: NYLFSPNGPIARAW (peptide)
peptide: NYLFSPNGPIARAW
notes: also called TNYL-RAW truncated of N-terminus Thr-P1
Work on B7 yielded a Kd [1] of 4.2 nM.

T[dN]YLFSPNGPIARAW (also called TNYL-RAW with D-Asn at P2) [T(dN)YLFSPNGPIARAW] was tested, and the Kd [6] was 5 nM.
